Source: paper PMC6500386 (Biochemistry, 2019)

Target: the molecule itself
Test: SEC + native gel or EMSA

B1: Bmp3, FAD-dependent prolyl-S-Bmp1(CP) oxidase (enzyme, Marinomonas mediterranea MMB-1)
chain: MNFEWTHEQAELFEHALRFGKELSAPLQEDNGFPRDNWNALGDFGYFGLPIPEKYAKDGSGFDILTTIKIIEGLGQSCTDTGLLFAGAAHTFACSMPILEHGSETLKHQLLPDLATGRKIAANAISEASAGSDISNLATTAQKEGDYYVLNGGKSYVTNGSIADYYVVYATTNKKHGYLGQTAFVVPRNTPGISVGNDYHKLGLRSAPLNQVFFDNCTIHKDYALGREGQGARIFAASMDWERCCLFAIFVGAMQRDLNQCIEYANTRMQGDKTISRFQAVSHRIADMGVRLESARLMLYYAAWQKSQDVDNTKAVAMSKLAISEAFVQSGIDSIRVHGALGYLDEGRVNNSIKDALGSVLFSGTSDIQRELICNRLGLL
- stoichiometry N: 4
